Assay results taken from patent US20230295273A1 (published 2023).

Assays:
[1] = target: PDGFRα-Fc Site 3 mutant (E208N, S210S as printed) (human) (UniProt P16234); test: BLI (Octet Red); PDGFRα-Fc captured on anti-human Fc sensors, trimer as soluble analyte
[2] = target: T1, PDGFRα-Fc Site 1 mutant (E52N, E54S) (human, UniProt P16234 24-528); test: as above
T1 construct: range 1-528; Mutations meant to introduce an N-linked glycosylation site; not shown: C-terminal human IgG1 (Fc) tag

[3] = target: T2, PDGFRα-Fc Site 4 mutant (E263N, K265S) (human, UniProt P16234 24-528); test: as above
T2 construct: range 1-528; Mutations meant to introduce an N-linked glycosylation site; not shown: C-terminal human IgG1 (Fc) tag

[4] = target: T3, PDGFRα-Fc Site 2 mutant (E108N, N110S) (human, UniProt P16234 24-528); test: as above
T3 construct: range 1-528; Mutations meant to introduce an N-linked glycosylation site; not shown: C-terminal human IgG1 (Fc) tag

[5] = target: T4, PDGFRα-Fc wild type (human PDGFRα (1-528) with C-terminal human IgG1 Fc tag) (human, UniProt P16234 24-528); test: as above
T4 construct: range 1-528; also called WT; PDGFRα WT; not shown: C-terminal human IgG1 (Fc) tag

[6] = target: T4, PDGFRα-Fc wild type (human PDGFRα …); test: BLI with PDGFRα-Fc (FIG. 7D)

T4 sequence (P16234 24-528 limits assumed, form in doubt): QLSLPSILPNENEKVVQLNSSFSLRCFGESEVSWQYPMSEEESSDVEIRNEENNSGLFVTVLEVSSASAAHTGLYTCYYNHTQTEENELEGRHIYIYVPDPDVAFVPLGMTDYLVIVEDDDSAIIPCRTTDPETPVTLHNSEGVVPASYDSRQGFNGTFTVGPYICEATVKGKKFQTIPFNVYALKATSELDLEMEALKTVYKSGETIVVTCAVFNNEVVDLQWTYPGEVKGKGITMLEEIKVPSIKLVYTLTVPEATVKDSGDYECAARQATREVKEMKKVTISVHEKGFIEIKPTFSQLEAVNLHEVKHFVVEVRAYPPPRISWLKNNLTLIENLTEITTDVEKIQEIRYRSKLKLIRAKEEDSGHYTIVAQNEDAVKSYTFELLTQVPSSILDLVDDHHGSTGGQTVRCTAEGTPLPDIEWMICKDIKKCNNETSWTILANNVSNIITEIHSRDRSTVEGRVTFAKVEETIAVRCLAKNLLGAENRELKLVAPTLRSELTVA
T3 sequence (P16234 24-528 E108N/N110S limits assumed, form in doubt): as the sequence (P16234 24-528 limits assumed, form in doubt) above, with E85N, N87S counted along it
T2 sequence (P16234 24-528 E263N/K265S limits assumed, form in doubt): as the sequence (P16234 24-528 limits assumed, form in doubt) above, with E240N, K242S counted along it
PDGFRα-Fc Site 3 mutant (E208N, S210S as printed) (human), sequence (P16234 24-528, stated change not applied): as the sequence (P16234 24-528 limits assumed, form in doubt) above
T1 sequence (P16234 24-528 E52N/E54S limits assumed, form in doubt): as the sequence (P16234 24-528 limits assumed, form in doubt) above, with E29N, E31S counted along it

With “HCMV gHgLgO trimer (soluble region, wild-type gO) (from UniProt P12824 24-716; Q68672 31-278)” the Kd [1] was 21.5 nM.

B1: HCMV gHgLgO trimer (soluble region, wild-type gO) (other)
chain 1: […]
chain 2: VAVSVAPTAAEKVPAECPELTRRCLLGEVFQGDKYESWLRPLVNVTGRNGPLSQLIRYRPVTPEAANSVLLDDAFLDTLALLYNNPDQLRALLTLLSSDTAPRWMTVMRGYSECGDGSPAVYTCVDDLCRGYDLTRLSYGRSIFTEHVLGFELVPPSLFNVVVAIRNEATRTNRAVRLPVSTAAAPEGITLFYGLYNAVKEFCLRHQLDPPLLRHLDKYYAGLPPELKQTRVNLPAHSRYGPQAVDAR
chain 3: […]
notes: Expressed in Expi293 cells; gH, gL and gO are disulfide-linked; also called HCMV trimer; gHgLgO complex; not shown: C-terminal Myc-Avi-His tag; C-terminal Twin-Strep-tag
For B1, the Kd [2] was 16.5 nM, the Kd [3] was 4.65 nM and the Kd [4] was 2.7 nM. It also gave a Kd [5] of 2.25 nM.

B2: HCMV gHgLgO trimer with charge mutations at gO (M84R, F111R, R117E, F136R, R212E, R230E, R234E, R336E, F342E, A351R, N358R) (other)
chain 1: […]
chain 2: VAVSVAPTAAEKVPAECPELTRRCLLGEVFQGDKYESWLRPLVNVTGRNGPLSQLIRYRPVTPEAANSVLLDDAFLDTLALLYNNPDQLRALLTLLSSDTAPRWMTVMRGYSECGDGSPAVYTCVDDLCRGYDLTRLSYGRSIFTEHVLGFELVPPSLFNVVVAIRNEATRTNRAVRLPVSTAAAPEGITLFYGLYNAVKEFCLRHQLDPPLLRHLDKYYAGLPPELKQTRVNLPAHSRYGPQAVDAR
chain 3: […]
notes: also called Trimermut; TrimerMUT; not shown: C-terminal Myc-Avi-His tag; C-terminal Twin-Strep-tag
B2 was tested, and the Kd [6] was 42500 nM and the “fold reduction of binding against Trimer-WT” value [6] was roughly 10000 times.
